Laboratory results as given in paper PMC5388505, “Interferon-inducible ribonuclease ISG20 inhibits hepatitis B virus replication through directly binding to the epsilon stem-loop structure of viral RNA”.

Experiments:
[1] = target: ISG20 dExoI (UniProt Q96AZ6 1-181, del7-16); assay: EMSA; no Mn2+; binding not reduced, even increased vs wild type; ISG20 EMSA: 20 mM HEPES, 100 mM KCl, 1 mM DTT, 0.5 mg/ml BSA, 10% glycerol, 0.05 ug/ul poly[dI-dC], 30 C 30 min, 100 ng RNA, pH not stated; Pol EMSA: 20 mM Tris pH 7.5, 2 mM MgCl2, 15 mM NaCl, 20 mM KCl, 4 mM DTT, yeast tRNA, 30 C 1 h; details: protein: recombinant; tags: 6xHis (pRSET A); label: 5'-32P; stem-loop with bulge and apical loop
[2] = target: ISG20 dExoII (UniProt Q96AZ6 1-181, del86-101); assay: as above; details: protein: recombinant; tags: 6xHis (pRSET A); label: 5'-32P; stem-loop with bulge and apical loop
[3] = target: T1, ISG20 (wild type) (UniProt Q96AZ6 1-181); assay: EMSA; no Mn2+; dose-dependent; supershift with anti-His; competed by 10-40x cold epsilon; ISG20 EMSA: 20 mM HEPES, 100 mM KCl, 1 mM DTT, 0.5 mg/ml BSA, 10% glycerol, 0.05 ug/ul poly[dI-dC], 30 C 30 min, 100 ng RNA, pH not stated; Pol EMSA: 20 mM Tris pH 7.5, 2 mM MgCl2, 15 mM NaCl, 20 mM KCl, 4 mM DTT, yeast tRNA, 30 C 1 h; details: protein: recombinant; label: 5'-32P; stem-loop with bulge and apical loop
[4] = target: ISG20 dExoIII (UniProt Q96AZ6 1-181, del147-157); assay: EMSA; no Mn2+; binding completely lost; ISG20 EMSA: 20 mM HEPES, 100 mM KCl, 1 mM DTT, 0.5 mg/ml BSA, 10% glycerol, 0.05 ug/ul poly[dI-dC], 30 C 30 min, 100 ng RNA, pH not stated; Pol EMSA: 20 mM Tris pH 7.5, 2 mM MgCl2, 15 mM NaCl, 20 mM KCl, 4 mM DTT, yeast tRNA, 30 C 1 h; details: protein: recombinant; tags: 6xHis (pRSET A); label: 5'-32P; stem-loop with bulge and apical loop
[5] = target: ISG20 D94G (UniProt Q96AZ6 1-181, D94G); assay: EMSA; no Mn2+; complex with altered mobility; ISG20 EMSA: 20 mM HEPES, 100 mM KCl, 1 mM DTT, 0.5 mg/ml BSA, 10% glycerol, 0.05 ug/ul poly[dI-dC], 30 C 30 min, 100 ng RNA, pH not stated; Pol EMSA: 20 mM Tris pH 7.5, 2 mM MgCl2, 15 mM NaCl, 20 mM KCl, 4 mM DTT, yeast tRNA, 30 C 1 h; details: protein: recombinant; tags: 6xHis (pRSET A); label: 5'-32P; stem-loop with bulge and apical loop
[6] = target: T1, ISG20 (wild type); assay: EMSA; no Mn2+; ISG20 EMSA: 20 mM HEPES, 100 mM KCl, 1 mM DTT, 0.5 mg/ml BSA, 10% glycerol, 0.05 ug/ul poly[dI-dC], 30 C 30 min, 100 ng RNA, pH not stated; Pol EMSA: 20 mM Tris pH 7.5, 2 mM MgCl2, 15 mM NaCl, 20 mM KCl, 4 mM DTT, yeast tRNA, 30 C 1 h; details: protein: recombinant; label: 5'-32P; hairpin
[7] = target: T1, ISG20 (wild type); assay: EMSA; no Mn2+; bottom 4 bp stated indispensable for binding; ISG20 EMSA: 20 mM HEPES, 100 mM KCl, 1 mM DTT, 0.5 mg/ml BSA, 10% glycerol, 0.05 ug/ul poly[dI-dC], 30 C 30 min, 100 ng RNA, pH not stated; Pol EMSA: 20 mM Tris pH 7.5, 2 mM MgCl2, 15 mM NaCl, 20 mM KCl, 4 mM DTT, yeast tRNA, 30 C 1 h; details: protein: recombinant; label: 5'-32P; hairpin

B1: HBV epsilon full length (FL) (structured_RNA)
RNA: CUUGUUCAUGUCCUACUGUUCAAGCCUCCAAGCUGUGCCUUGGGUGGCUUUGGGGCAUGGACAUC
[1]
  binding result: binds
[2]
  binding result: binds
[3]
  binding result: binds
[4]
  binding result: no binding
[5]
  binding result: binds

## UCAAGCCUCCAAGCUGUGCCUUGGGUGGCUUUG (structured_RNA) [Upper stem + loop (US+L)]
[6]
  binding result: no binding

## CUUGUUCAUGUCCUACUGUUCUGGGGCAUGGACAUC (structured_RNA) [Lower stem + bulge (LS+B)]
[6]
  binding result: binds

## CUUGUUCAUGUCCUACUAAAAUGGGGCAUGGACAUC (structured_RNA) [Lower stem + bulge mutant (LS+Bm)]
[6]
  binding result: binds

## CAUGUCCUACUGUUCUGGGGCAUG (structured_RNA) [Lower stem d4bp + bulge (LSd4+B)]
[7]
  binding result: no binding
